For data set [1], the target named is T1, HbA1c-type αF8P (α-fructosyl-valyl-histidyl-leucyl-threonyl-prolyl-glutamyl-glutamyl-lysine).
T1 chain: VHLTPEEK

Data set [2] deals with T2, HbC1c-type αF8P.
T2 chain: VHLTPKEK

Data set [3] has as its target T3, HbS1c-type αF8P.
T3 chain: VHLTPVEK

B1: glycated hexapeptide oxidase derived from Emericella nidulans (En42FX) (protein)
chain: MAPRANTKIIVVGGGGTMGSSTALHLLRAGYTPSNITVLDTYPIPSAQSAGYDLNKIFGISGANKHDLQLSLEAFDMWKNDPLFKPFFHNVGQMDVSSTEEGIKRLRRRYQSLLRAGIGLEKTNFLLESEDEILAKAPHFTREQIKGWKGLFCGDGGWLAAAKAINAIGQFLKEQGVKFGFGEAGTFKKPLFADADEKTCIGVETVDGTKYYADKVVLAAGAWSSTLVDLEEQCVSKAWVFAHIQLTPAEAAAYKNTPVIYDGDYGFFIEPDENGIIKVCDEFPGFTHFKMHQPYGSPVPKLISVPRSHAKHPTDTYPHASEVTIKKAINRFLPRFNDKELFNRAMCWCTDTADSNLLVCEHPRWKGFYLATGDSGHSFKLLPNIGKHVVELLEGRLESVFKDAWRWRPGSGDALKSRRAAPAKDLADMPGWRNEAKM
As to B1, in data set [1], the relative activity on substrate (reference, designated as 100%) is 100%. Also, the relative activity on substrate (activity on HbA1c-type αF8P = 100%) in data set [2] worked out at 8%; in data set [3], 41%.

B2: En42FX R105N (protein)
chain: MAPRANTKIIVVGGGGTMGSSTALHLLRAGYTPSNITVLDTYPIPSAQSAGYDLNKIFGISGANKHDLQLSLEAFDMWKNDPLFKPFFHNVGQMDVSSTEEGIKNLRRRYQSLLRAGIGLEKTNFLLESEDEILAKAPHFTREQIKGWKGLFCGDGGWLAAAKAINAIGQFLKEQGVKFGFGEAGTFKKPLFADADEKTCIGVETVDGTKYYADKVVLAAGAWSSTLVDLEEQCVSKAWVFAHIQLTPAEAAAYKNTPVIYDGDYGFFIEPDENGIIKVCDEFPGFTHFKMHQPYGSPVPKLISVPRSHAKHPTDTYPHASEVTIKKAINRFLPRFNDKELFNRAMCWCTDTADSNLLVCEHPRWKGFYLATGDSGHSFKLLPNIGKHVVELLEGRLESVFKDAWRWRPGSGDALKSRRAAPAKDLADMPGWRNEAKM
As for B2, the relative activity on substrate (reference, designated as 100%) in data set [1] was determined as 100%. Besides, the relative activity on substrate (activity on HbA1c-type αF8P = 100%) is 11% in data set [2] and 95% in data set [3].

B3: En42FX R108S (protein)
chain: MAPRANTKIIVVGGGGTMGSSTALHLLRAGYTPSNITVLDTYPIPSAQSAGYDLNKIFGISGANKHDLQLSLEAFDMWKNDPLFKPFFHNVGQMDVSSTEEGIKRLRSRYQSLLRAGIGLEKTNFLLESEDEILAKAPHFTREQIKGWKGLFCGDGGWLAAAKAINAIGQFLKEQGVKFGFGEAGTFKKPLFADADEKTCIGVETVDGTKYYADKVVLAAGAWSSTLVDLEEQCVSKAWVFAHIQLTPAEAAAYKNTPVIYDGDYGFFIEPDENGIIKVCDEFPGFTHFKMHQPYGSPVPKLISVPRSHAKHPTDTYPHASEVTIKKAINRFLPRFNDKELFNRAMCWCTDTADSNLLVCEHPRWKGFYLATGDSGHSFKLLPNIGKHVVELLEGRLESVFKDAWRWRPGSGDALKSRRAAPAKDLADMPGWRNEAKM
As for B3, in data set [1], the relative activity on substrate (reference, designated as 100%) is 100%. The figures for the relative activity on substrate (activity on HbA1c-type αF8P = 100%) in data set [2] and in data set [3] were 10% and 61%, respectively.

B4: En42FX R105E (protein)
chain: MAPRANTKIIVVGGGGTMGSSTALHLLRAGYTPSNITVLDTYPIPSAQSAGYDLNKIFGISGANKHDLQLSLEAFDMWKNDPLFKPFFHNVGQMDVSSTEEGIKELRRRYQSLLRAGIGLEKTNFLLESEDEILAKAPHFTREQIKGWKGLFCGDGGWLAAAKAINAIGQFLKEQGVKFGFGEAGTFKKPLFADADEKTCIGVETVDGTKYYADKVVLAAGAWSSTLVDLEEQCVSKAWVFAHIQLTPAEAAAYKNTPVIYDGDYGFFIEPDENGIIKVCDEFPGFTHFKMHQPYGSPVPKLISVPRSHAKHPTDTYPHASEVTIKKAINRFLPRFNDKELFNRAMCWCTDTADSNLLVCEHPRWKGFYLATGDSGHSFKLLPNIGKHVVELLEGRLESVFKDAWRWRPGSGDALKSRRAAPAKDLADMPGWRNEAKM
Turning to B4, the relative activity on substrate (reference, designated as 100%) in data set [1] was 100%. Besides, the figures for the relative activity on substrate (activity on HbA1c-type αF8P = 100%) in data set [2] and in data set [3] were 31% and 69%, respectively.

B5: En42FX R105Q (protein)
chain: MAPRANTKIIVVGGGGTMGSSTALHLLRAGYTPSNITVLDTYPIPSAQSAGYDLNKIFGISGANKHDLQLSLEAFDMWKNDPLFKPFFHNVGQMDVSSTEEGIKQLRRRYQSLLRAGIGLEKTNFLLESEDEILAKAPHFTREQIKGWKGLFCGDGGWLAAAKAINAIGQFLKEQGVKFGFGEAGTFKKPLFADADEKTCIGVETVDGTKYYADKVVLAAGAWSSTLVDLEEQCVSKAWVFAHIQLTPAEAAAYKNTPVIYDGDYGFFIEPDENGIIKVCDEFPGFTHFKMHQPYGSPVPKLISVPRSHAKHPTDTYPHASEVTIKKAINRFLPRFNDKELFNRAMCWCTDTADSNLLVCEHPRWKGFYLATGDSGHSFKLLPNIGKHVVELLEGRLESVFKDAWRWRPGSGDALKSRRAAPAKDLADMPGWRNEAKM
As for B5, the relative activity on substrate (reference, designated as 100%) in data set [1] was determined as 100%. For the same protein, the relative activity on substrate (activity on HbA1c-type αF8P = 100%) was determined as 25% in data set [2] and 70% in data set [3].

B6: En42FX R105A (protein)
chain: MAPRANTKIIVVGGGGTMGSSTALHLLRAGYTPSNITVLDTYPIPSAQSAGYDLNKIFGISGANKHDLQLSLEAFDMWKNDPLFKPFFHNVGQMDVSSTEEGIKALRRRYQSLLRAGIGLEKTNFLLESEDEILAKAPHFTREQIKGWKGLFCGDGGWLAAAKAINAIGQFLKEQGVKFGFGEAGTFKKPLFADADEKTCIGVETVDGTKYYADKVVLAAGAWSSTLVDLEEQCVSKAWVFAHIQLTPAEAAAYKNTPVIYDGDYGFFIEPDENGIIKVCDEFPGFTHFKMHQPYGSPVPKLISVPRSHAKHPTDTYPHASEVTIKKAINRFLPRFNDKELFNRAMCWCTDTADSNLLVCEHPRWKGFYLATGDSGHSFKLLPNIGKHVVELLEGRLESVFKDAWRWRPGSGDALKSRRAAPAKDLADMPGWRNEAKM
B6 displayed a relative activity on substrate (reference, designated as 100%) in data set [1] of 100%. For the same protein, the relative activity on substrate (activity on HbA1c-type αF8P = 100%) in data set [2] was 33%; in data set [3], 70%.

B7: En42FX R108A (protein)
chain: MAPRANTKIIVVGGGGTMGSSTALHLLRAGYTPSNITVLDTYPIPSAQSAGYDLNKIFGISGANKHDLQLSLEAFDMWKNDPLFKPFFHNVGQMDVSSTEEGIKRLRARYQSLLRAGIGLEKTNFLLESEDEILAKAPHFTREQIKGWKGLFCGDGGWLAAAKAINAIGQFLKEQGVKFGFGEAGTFKKPLFADADEKTCIGVETVDGTKYYADKVVLAAGAWSSTLVDLEEQCVSKAWVFAHIQLTPAEAAAYKNTPVIYDGDYGFFIEPDENGIIKVCDEFPGFTHFKMHQPYGSPVPKLISVPRSHAKHPTDTYPHASEVTIKKAINRFLPRFNDKELFNRAMCWCTDTADSNLLVCEHPRWKGFYLATGDSGHSFKLLPNIGKHVVELLEGRLESVFKDAWRWRPGSGDALKSRRAAPAKDLADMPGWRNEAKM
The protein B7 returned a relative activity on substrate (reference, designated as 100%) in data set [1] of 100%. Moreover, the relative activity on substrate (activity on HbA1c-type αF8P = 100%) in data set [2] came to 57%; in data set [3], 70%.

B8: CFP-T7-H40-3M K113D (protein)
chain: MTSNRADTRVIVVGGGGTIGSSTALHLVRSGYAPANITVLDTFEIPSAQSAGHDLNKIMGIDHGNKVNLQMSLEARQMWKEDELFQPFFHNTGRMDCESTPKGIEKLKKYYQDLHDAGAGLEKTHAWLDNEDEILSKMPLLQRDQIQGWKAIWSQDGGWLAAAKAINAIGQFLKERGVKFGFGGAGSFKQPLFDDEGTTCIGVETADGTKYYADKVVLAAGAWSPTLVDLEDQCCSKAWVYAHIQLTPEEAAEYKGVPVVYNSEYGFFFEPDEFGVIKVCNEFPGFSRFKEHQPYGAPSPKRISVPRSHAKHPTDTYPDASEVSIKKAIATFLPRFQDKELFNRALCWCTDTADSTLLMCEHPKWKNFILATGDSGHSFKILPNVGKYVVELIEGRLPEEMAYQWRWRPGGDALKSRRAAPPKDLADMPGWKHDPKL
Regarding B8, in data set [1], the relative activity on substrate (reference, designated as 100%) is 100% and the “specific activity on substrate” value is recorded as “at least 20 mU/mg”. In data set [2], the relative activity on substrate (activity on HbA1c-type αF8P = 100%) was 39% and the “specific activity on substrate” value is “at least 20 mU/mg”. Besides, in data set [3], the relative activity on substrate (activity on HbA1c-type αF8P = 100%) stood at 93% and the “specific activity on substrate” value is listed as “at least 20 mU/mg”.

Values taken from patent US20200283741.
